The RNAGym collection of RNA variant scans (doi:10.1093/molbev/msab373)

B1: Azoarcus group I ribozyme (parent)
chain: GUGCCUUGCGCCGGGAAACCACGCAAGGGAUGGUGUCAAAUUCGGCGAAACCUAAGCGCCCGCCCGGGCGUAUGGCAACGCCGAGCCAAGCUUCGGCGCCUGCGCCGAUGAAGGUGUAGAGACUAGACGGCACCCACCUAAGGCAAACGCUAUGGUGAAGGCAUAGUCCAGGGAGUGGCGAAAGUCACACAAACCGG

Variants of: B1
Assay: reverse-splicing fitness (ratio to wild type); higher = more active; in vitro selection; Mg2+ level not given
Procedure, shortened: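 An in vitro group I ribozyme library with randomized positions was T7-transcribed and gel-purified. In triplicate, 10 pmol RNA in EPPS pH 7.5 was reacted with 50 pmoles of a 30-nt RNA substrate for 1 h at 37 °C across several added MgCl2 levels (1–48 mM), then stopped with EDTA. Products were reverse transcribed from a substrate-complementary primer, PCR-amplified and sequenced (HiSeq 4000). Fitness is a variant's read proportion after selection over that before, normalised to wild type.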

Variant	reverse-splicing fitness
C82A A111U A120U A145C U176C	0.00758
C82A A111U A120U A145G C150U C169G	0.00728
C82A A111U A120U A145G C150U C169U	0.00663
C82A A111U A120U A145G C150U C169A	0.00728
C82A A111U A145G C150A C169G	0.00916
C82A A111U A145G C150A C169A	0.0117
C82A A111U A145G C150A C169U	0.0111
C82A A111U A145C C150U U176G	0.0107
C82A A111U A145C C150U U176C	0.0396
C82A A111U A145C C150U U176A	0.0254
C82A A111U A120U A145G C150U C169G U176G	0.00271
C82A A111U A120U A145G C150U C169G U176A	0.00984
C82A A111U A120U A145G C150U C169G U176C	0.00667
C82A A111U A120U A145C C169U U176A	0.00334
C82A A111U A120U A145C C169U U176G	0.00193
C82A A111U A120U A145C C169U U176C	0.0036
C82A A111U A120U A145C C150U	0.00779
C82A A111U A120U A145U C150A C169U U176C	0.00277
C82A A111U A120U A145U C150A C169U U176G	0.00245
C82A A111U A120U A145U C150A C169U U176A	0.00317
C82A A111U A120U A145C C150U U176C	0.00533

Variant	reverse-splicing fitness
C82A A111U A120U A145C C150U U176G	0.00319
C82A A111U A120U A145C C150U U176A	0.00482
C82A A111U A145G C150G C169A U176C	0.0137
C82A A111U A145G C150G C169A U176G	0.0091
C82A A111U A145G C150G C169A U176A	0.0138
C82A A111U A120U C150A C169G	0.00511
C82A A111U A120U C150A C169U	0.00495
C82A A111U A120U C150A C169A	0.00615
C82A A111U A120U C150G C169U	0.00659
C82A A111U A120U C150G C169G	0.00683
C82A A111U A120U C150G C169A	0.00872
C82A A111U A120U A145G C150G C169A U176C	0.0099
C82A A111U A120U A145G C150G C169A U176G	0.00618
C82A A111U A120U A145G C150G C169A U176A	0.0119
C82A A111U A120U A145G C169U	0.00488
C82A A111U A120U A145G C169G	0.00467
C82A A111U A120U A145G C169A	0.0037
C82A A111U A145G C150U U176A	0.0694
C82A A111U A145C C150G	0.0267
C82A A111U A145C C150A	0.0156
C82A A111U A145C C150U	0.0537

Variant	reverse-splicing fitness
C82A A111U A145C C150U C169U U176C	0.00945
C82A A111U A145C C150U C169U U176G	0.00661
C82A A111U A145C C150U C169U U176A	0.0138
C82A A111U A120U C150U C169G U176A	0.00965
C82A A111U A120U C150U C169G U176G	0.00271
C82A A111U A120U C150U C169G U176C	0.00496
C82A A111U A120U C150A U176C	0.00653
C82A A111U A120U C150A U176G	0.0037
C82A A111U A120U C150A U176A	0.00697
C82A A111U A145C C150U C169G U176C	0.0141
C82A A111U A145C C150U C169G U176G	0.00743
C82A A111U A145C C150U C169G U176A	0.0233
C82A A111U A145C C150A C169G U176C	0.0169
C82A A111U A145C C150A C169G U176A	0.029
C82A A111U A145C C150A C169G U176G	0.00831
C82A A111U A145G C150G U176C	0.0188
C82A A111U A145G C150G U176G	0.00688
C82A A111U A145G C150G U176A	0.00963
C82A A111U A120U A145U C150U C169U	0.00362
C82A A111U A120U A145U C150U C169G	0.00407
C82A A111U A120U A145U C150U C169A	0.00293

Variant	reverse-splicing fitness
C82A A111U A120U C150A C169A U176G	0.00306
C82A A111U A120U C150A C169A U176C	0.00509
C82A A111U A120U C150A C169A U176A	0.00679
C82A A111U A120U C150U C169U U176C	0.00448
C82A A111U A120U C150U C169U U176G	0.00262
C82A A111U A120U C150U C169U U176A	0.00662
C82A A111U A120U A145G C169G U176A	0.00391
C82A A111U A120U A145G C169G U176C	0.00486
C82A A111U A120U A145G C169G U176G	0.00182
C82A A111U A120U A145U C150G C169A U176C	0.00325
C82A A111U A120U A145U C150G C169A U176G	0.00285
C82A A111U A120U A145U C150G C169A U176A	0.00398
C82A A111U A120U A145G C150U C169U U176G	0.00286
C82A A111U A120U A145G C150U C169U U176C	0.00506
C82A A111U A120U A145G C150U C169U U176A	0.00537
C82A A111U A145G C150A C169G U176A	0.0183
C82A A111U A145G C150A C169G U176G	0.00681
C82A A111U A145G C150A C169G U176C	0.027
C82A A111U A120U A145U C150G C169U U176A	0.00308
C82A A111U A120U A145U C150G C169U U176C	0.00313
C82A A111U A120U A145U C150G C169U U176G	0.0027
